# Values of other authors in paper PMC10795913 (The Journal of Clinical Endocrinology and Metabolism, 2023).
# System: patients
# Settings: different assays, not directly comparable; cited from earlier work
substance,measurement,value
dulaglutide,ADA incidence in published studies,up to 4.1%
